Data published in article PMC4609494.

What was measured:
[1] = target: TNF receptor-1 (TNFR-1), rat (rat) (UniProt P22934)
[2] = target: TNF receptor-1 (TNFR-1), rat (rat) (UniProt P22934); remark: listed apart in the source
[3] = target: TNF receptor-2 (TNFR-2), rat (rat) (UniProt Q80WY6)
[4] = target: TNF receptor-2 (TNFR-2), rat (rat) (UniProt Q80WY6); remark: listed apart in the source

UniProt Q80WY6, sequence (Q80WY6 23-474): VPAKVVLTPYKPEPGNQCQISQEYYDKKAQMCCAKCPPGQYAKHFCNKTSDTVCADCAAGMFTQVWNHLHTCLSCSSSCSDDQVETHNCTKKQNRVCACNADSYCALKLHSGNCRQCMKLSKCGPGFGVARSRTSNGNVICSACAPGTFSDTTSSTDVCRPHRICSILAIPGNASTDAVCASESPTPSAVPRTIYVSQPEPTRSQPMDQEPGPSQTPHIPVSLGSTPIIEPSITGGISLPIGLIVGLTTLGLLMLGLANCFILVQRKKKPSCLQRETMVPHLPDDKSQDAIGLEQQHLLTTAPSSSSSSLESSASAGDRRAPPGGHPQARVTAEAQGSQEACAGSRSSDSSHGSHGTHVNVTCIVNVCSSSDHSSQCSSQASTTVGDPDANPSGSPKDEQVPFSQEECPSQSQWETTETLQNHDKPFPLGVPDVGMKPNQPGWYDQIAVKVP
UniProt P22934, sequence (P22934 30-461): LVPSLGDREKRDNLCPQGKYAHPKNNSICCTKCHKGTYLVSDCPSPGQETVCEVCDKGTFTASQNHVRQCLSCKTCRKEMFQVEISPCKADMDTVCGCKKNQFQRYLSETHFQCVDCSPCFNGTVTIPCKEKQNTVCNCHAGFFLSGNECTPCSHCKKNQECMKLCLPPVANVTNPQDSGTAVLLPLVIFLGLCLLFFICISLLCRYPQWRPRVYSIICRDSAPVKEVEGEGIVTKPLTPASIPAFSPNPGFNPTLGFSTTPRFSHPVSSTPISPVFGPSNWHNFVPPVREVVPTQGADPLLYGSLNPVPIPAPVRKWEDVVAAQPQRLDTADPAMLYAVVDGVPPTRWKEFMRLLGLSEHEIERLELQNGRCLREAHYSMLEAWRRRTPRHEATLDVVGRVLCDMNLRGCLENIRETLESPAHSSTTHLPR

| increase of the voltage-gated sodium channel current I Na(V) in small rat DRG neurons, whole-cell patch clamp, repetitive depolarization to 0 mV, R32W 10 pg (dose-dependent over 1-100 pg) [1] [%] | increase of the TTX-resistant NaV1.8 current I NaV(1.8) in small rat DRG neurons, whole-cell patch clamp, repetitive depolarization to 0 mV, R32W 100 pg, 300 s after treatment [2] [%] | increase of the voltage-gated sodium channel current I Na(V) in small rat DRG neurons, whole-cell patch clamp, repetitive depolarization to 0 mV, D145 10 pg (dose-dependent over 1-100 pg) [3] [%] | increase of the TTX-resistant NaV1.8 current I NaV(1.8) in small rat DRG neurons, whole-cell patch clamp, repetitive depolarization to 0 mV, D145 100 pg, 300 s after treatment [4] [%] | Substance |
| --- | --- | --- | --- | --- |
| 27.2 | 18.9 | – | – | TNF mutant protein R32W (R32W/S86T), selective TNFR-1 agonist (ligand) |
| – | – | 44.9 | 14.5 | TNF mutant protein D145 (D143N/A145R), selective TNFR-2 agonist (ligand) |
